Experimental data taken from PMC3563628, “Prevalence, Specificity and Determinants of Lipid-Interacting PDZ Domains from an In-Cell Screen and In Vitro Binding Experiments” (PLoS ONE, 2013).

Legend:
[1] = SPR equilibrium binding of his-tagged PDZ domains to various PtdInsPs species; details: recombinant PDZ domain over PtdInsPs liposomes
[2] = SPR equilibrium binding of his-tagged PDZ domains to PtdIns(4,5)P2 liposomes; details: SPR equilibrium analysis, 5% PtdIns(4,5)P2 in DOPC liposomes, 25°C, pH 7.2; read-out: KD app PtdIns(4,5)P2
[3] = SPR binding to PtdIns(4,5)P2 in composite liposomes mimicking biological membrane; details: 30% PC, 20% PS, 40% PE and 5% PtdIns(4,5)P2
From the text: (§1) As an alternative in vitro approach we performed lipid blot assays using commercially available membranes pre-spotted with PtdIns, PtdIns4P, PtdIns(4,5)P2 and PtdIns(3,4,5)P3 as well as other abundant lipids (Fig. 4B–C). IL16_3 and PDZD2_3, were excluded from this analysis due to their high binding to the blank immobilized spot. […] Other PtdInsPs-PDZ interactions were confirmed. Discrepancy between SPR and lipid blot approaches can be easily explained by the fact that the latter method is highly koff-dependent. […] We therefore performed SPR experiments with five selected PDZ domains (CASK, DFNB31_1, MAGI1_6, MAGI3_3 and SLC9A3R2_1) and two selected lipids, PS and PE, embedded in DOPC liposomes (10% PS or 40% PE in a DOPC using 100% DOPC as reference). […] We have previously reported that weak electrostatic interactions with PS reinforce the interactions of the second PDZ domain of Polychaetoid with PtdIns(4,5)P2 containing liposomes. We therefore investigated, for the same five PDZ domains, how the apparent PtdIns(4,5)P2 affinities were affected by presenting the lipid in the background of liposomes mimicking biological membrane lipid composition ([…], 20% PS, 40% PE and 5% PtdIns(4,5)P2).
(§2) SPR experiments were performed in a BiacoreT100 (GE Healthcare) at 25°C in 25 mM HEPES, 150 mM NaCl, pH 7.2 and 1 mM beta-mercaptoethanol with a flow rate of 30 µl/min. […]

[4] = biological target: C-terminal peptide of usher (FTDTHL); assay: Equilibrium peptide binding titration followed by intrinsic tryptophan fluorescence; details: Y167W mutation introduced as fluorescent probe; protein 3 µM; 25°C, pH 7.2
From the text: Given the overall low PtdInsPs specificities, and often modest PtdInsPs affinities, it is unlikely that PtdInsPs bindings alone target the PDZ domains to their defined subcellular compartments. Plausibly, peptide interactions are also involved in controlling the subcellular targeting. To address the interplay between PtdInsPs and peptide-binding we chose DFNB31_1 and CASK as models, taking two of the PDZ domains with well-defined cognate peptides. Cognate peptide ligands were the C-terminal peptides of usher (FTDTHL) for DFNB31_1 [50] and the TKEFYA peptide of syndecan-2 for CASK [51]. We measured the PDZ-peptide affinities by a fluorescence-based approach (Fig. 4E), by engineering Trp into the PDZ scaffolds and following the interactions by changes in intrinsic fluorescence, a strategy previously established for other PDZ domains (KD-values: DFNB31_1/Y167W for FTDTHL 46±6 µM; CASK/I157W for TKEFYA 280±20 µM), [52]. We then determined the apparent PtdIns(4,5)P2 affinities in presence of a (close to) saturating concentration of respective peptide (1 mM). The FTDTHL peptide appeared to compete for DFNB31_1-PtdIns(4,5)P2 interactions (KD ^PtdIns(4,5)P2 in presence of peptide >30 µM, Fig. 4F), which might indicate overlapping binding sites. […] We have previously reported on competitive binding by peptide and PtdIns(4,5)P2 with CASK [13]. However, in these experiments the peptide was linked to sepharose beads and PtdIns(4,5)P2 was present on micelles, which made it more difficult for the PDZ domain to simultaneously interact with the two ligands.
Spectrofluorimetric measurements were performed at 25°C in 25 mM HEPES, 150 mM NaCl, pH 7.2 and 1 mM beta-mercaptoethanol in a Carry Eclipse Spectrofluorimeter (Varian). The peptides corresponded to the C-termini of syndecan-2 (TKEFYA) and usher (FTDTHL) and were of high purity (purity >95%, GeneCust), and the experiment were performed and analyzed as described previously. Urea induced equilibrium unfolding experiments were performed using 1 µM of proteins (excitation 280 nm emission 320–380 nm) and the data fitted by a standard two-state model.

[5] = SPR binding to PE liposomes; details: 40% PE in DOPC, 100% DOPC as reference
From the text: as §1, §2

[6] = SPR binding to PS liposomes; details: 10% PS in DOPC, 100% DOPC as reference
From the text: as §1, §2

B1: DFNB31_1: recombinant his-tagged first PDZ domain of human DFNB31 (protein)
chain: GEVRLVSLRRAKAHEGLGFSIRGGSEHGVGIYVSLVEPGSLAEKEGLRVGDQILRVNDKSLARVTHAEAVKALKGSKKLVLSVYSAGRI
modifications: left off: His6, N-terminal, state not stated
notes: recombinant his-tagged first PDZ domain of human DFNB31
In the case of B1, the “PtdInsPs binding in vitro, in words” value [1] is reported as “high-affinities”, the Kd [2] is reported as 7.8 ± 2 µM and the Kd [3] is reported as 2.7 ± 1 µM. The Kd [4] was 46 ± 6 µM, the “PE binding, in words” value [5] was “did not observe any detectable PDZ-PE binding” and the “PS binding, in words” value [6] was “low affinity interactions”.
